{"source": "paper PMC4329186", "biological_target": "human alpha-thrombin (human, UniProt P00734;P00734 328-363;364-622)", "test": "ctITP-NECEEM capillary electrophoresis; no metal ions; 400 nM thrombin; Tris-HCl sample buffer, no added metal ions, 30 min incubation; Tris and glycine reagents for CE; pH and temperature not given in the material"}
{"binder": "29mer thrombin aptamer with Ion Torrent primer handles and spacer (97 nt) (structured_DNA) DNA: CCTCTCTATGGGCAGTCGGTGATAGTCCGTGGTAGGGCAGGTTGGGGTGACTTAAGGAGTTCAATATCTGAGTCGGAGACACGCAGGGATGAGATGG", "values": [{"measurement": "binding result", "value": "binds"}]}
